{"source": "patent US20040103447A1", "about": "“Schizophrenia-like mental disease model animal, method of constructing the same and use thereof” (priority 2001, published 2004)", "molecules": {"B1": {"name": "IL-1α: human recombinant interleukin 1α, a cytokine, dissolved in physiological saline and administered to neonatal rats to induce the model (protein, UniProt P01583 113-271, looked up)", "Interleukin-1 alpha": "SAPFSFLSNVKYNFMRIIKYEFILNDALNQSIIRANDQYLTAAALHNLDEAVKFDMGAYKSSKDDAKITVILRISKTQLYVTAQDEDQPVLLKEMPEIPKTITGSETNLLFFWETHGTKNYFTSVAHPNLFIATKQDYWVCLAGGPPSITDFQILENQA"}}, "key": {"[1]": {"system": "SD rats", "assay": "Startle response intensity to 120 db sound after neonatal subcutaneous administration", "format": "in vivo, rat", "conditions": "1.0 mg/kg s.c. 10 times from 2 days after birth, compared to cytochrome-C administration group", "procedure": "As the animal, SD rats (Japan SLC) were used from 2 days after birth. As a reagent, human recombinant interleukin 1α and cytochrome-C (Sigma) were each dissolved in physiological saline at 40 μg/mL and used. The reagents were subcutaneously administered 10 times in total (up to 11 days after birth) into the neck at 25 μL (each 1.0 mg/kg) per 1 g of rat body weight […] from 2 days after birth. From 21 days after birth, startle response intensity and prepulse inhibition were measured with an apparatus of measuring startle response of small animal (San Diego Instruments). That is, as a sensory stimulus to induce a startle response, a sound stimulation was used, and as a prepulse stimulation, a sound pressure stimulus of 75 db was given, which was 5 db higher than the environmental noise (background noise) level. After 100 milli-seconds, a pulse stimulus of a sound pressure of 120 db was given. The ratio of decrease in the startle response when prepulse was combined to the startle response with 120 db alone was considered as the prepulse inhibition (PPI)."}, "[2]": {"system": "SD rats", "assay": "Prepulse inhibition (PPI) in startle response after neonatal subcutaneous administration", "format": "in vivo, rat", "conditions": "75 db prepulse, 120 db pulse after 100 ms, 1.0 mg/kg s.c. 10 times from 2 days after birth, compared to cytochrome-C group", "source_text": "The prepulse inhibition in startle response is a test for perception-response ability using a startle response, which can be commonly evaluated in human and animals, as an index. This test is characterized in that abnormalities in attention and ability to process information in brain, which are considered to be the main disease state of schizophrenia, can be scientifically and objectively evaluated. The test itself is a measurement of decrease in a fright startle response to a big sound, which is attributable to the previous application of a weak sound stimulus (prepulse) of the level incapable of causing a fright startle response, 30-150 mSec before causing a fright startle response by making a noise of about 120 db. The decrease produced by the prepulse is called a prepulse inhibition, which is known to indicate abnormal decrease in schizophrenia patients and schizophrenia animal models (Braff D. L., Geyer M. A., Arch. Gen. Psychiatry, 47, 181-188, 1990).\nAs the animal, SD rats (Japan SLC) were used from 2 days after birth. As a reagent, human recombinant interleukin 1α and cytochrome-C (Sigma) were each dissolved in physiological saline at 40 μg/mL and used. […] From 21 days after birth, startle response intensity and prepulse inhibition were measured with an apparatus of measuring startle response of small animal (San Diego Instruments). […]"}}, "data": [{"molecule": "B1", "values": [{"measurement": "intensity of startle response to the sound pressure of 120 db", "setting": "[1]; 22 days after birth, FIG. 1B", "result": "such abnormality was not found"}, {"measurement": "intensity of startle response to the sound pressure of 120 db", "setting": "[1]; 60 days after birth, FIG. 1A", "result": "significant increase"}, {"measurement": "prepulse inhibition", "setting": "[2]; 22 days after birth, FIG. 2B", "result": "such abnormality was not found"}, {"measurement": "prepulse inhibition", "setting": "[2]; 60 days after birth, p<0.05, FIG. 2A", "result": "significant decrease"}]}]}
